According to US20260042834A1 (HBM ALPHA THERAPEUTICS, published 2026):
Several values for one entry are separate records, joined by “and”; a condition that tells them apart may be missing. Identical values can stand only once.

Legend:
[1] = target: T1, human UCN2 peptide (human, UniProt Q96RP3 72-109, limits assumed, not fully specified; biotin at N- or C-terminus in the ELISA); assay: ELISA on streptavidin-captured hUCN2 (NT biotin) and hUCN2 (CT biotin), mAb at 100 nM and 10 nM; axis labelled RLU, scale 0-4
T1 construct: also called hUCN2; hUCN2 (NT Biotin)
T1 peptide (looked up): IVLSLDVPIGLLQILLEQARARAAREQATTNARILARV
Protocol: (§1) Streptavidin (Thermo, Cat: 21125) was diluted in PBS with a concentration of 2 μg/mL. 100 μL of diluted streptavidin was added per well to ELISA microplates, and the plates were incubated overnight at 4° C. Plates were blocked with ELISA blocking solution (containing 2% w/v BSA, 0.05% (v/v) Tween-20, pH 7.4 PBS buffer) at 37° C. for 1 hour, and then incubated with either 1 μg/mL hUCN1 (NT Biotin), hUCN1 (CT Biotin), hUCN2 (NT Biotin), hUCN2 (CT Biotin), hUCN3 (NT Biotin), or hUCN3 (CT Biotin) for 1 hour at 37° C. […] 100 μl of TMB Substrate (Biopanda, Cat: TMB-S-003) was added, and the plates were incubated at room temperature for 15 minutes. 100 μL of ELISA stopping solution (Solarbio, Cat #: C1058) was then added to terminate the reaction, and the OD450 nm was determined by an ELISA plate reader (Molecular Devices, Spectra max 384 plus).

[2] = target: T2, biotinylated CRH (human and mouse, not fully specified; biotinylated, position not stated); assay: competitive ELISA, coated 1st mAb; competitor PR302069
T2 construct: also called Biotin-CRH; biotin-labeled CRH
T2 peptide: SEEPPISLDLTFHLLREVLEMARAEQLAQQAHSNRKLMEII
Protocol: (§2) For epitope binding, a competitive ELISA was performed. Specifically, 1 μg/ml of capture antibody, 100 μl/well, was coated on a 96 well-plate at 4° C. overnight. Plates were blocked with ELISA blocking solution (containing 2% w/v BSA, 0.05% (v/v) Tween-20, pH 7.4 PBS buffer) at 37° C. for 1 hour. […] Subsequently, plates were washed and incubated with Streptavidin-Peroxidase (SIGMA, Cat: 52438-250UG) at 37° C. for 1 hour. 100 μL of 3,3′,5,5′-tetramethylbenzidine (TMB) substrate (Biopanda, Cat: TMB-S-003) was added, and the plates were incubated at room temperature for 15 minutes. 100 μL of ELISA stopping solution (Solarbio, Cat #: C1058) was added to terminate the reaction, and the optical density at 450 nm (OD450 nm) was determined by an ELISA plate reader (Molecular Devices, Spectra max 384 plus).

[3] = target: T2, biotinylated CRH; assay: competitive ELISA, coated 1st mAb; competitor PR302050
Protocol: as §2

[4] = target: T2, biotinylated CRH; assay: competitive ELISA, coated 1st mAb; competitor PR302064
Protocol: as §2

[5] = target: T2, biotinylated CRH; assay: competitive ELISA, coated 1st mAb; competitor PR006148
Protocol: as §2

[6] = target: T2, biotinylated CRH; assay: competitive ELISA, coated 1st mAb; competitor PR302055
Protocol: as §2

[7] = target: T3, corticotropin-releasing hormone (CRH) peptide (human and mouse, not fully specified); assay: cell-based or functional assay
T3 peptide: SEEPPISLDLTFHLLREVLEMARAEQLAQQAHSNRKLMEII

[8] = target: T2, biotinylated CRH; assay: competitive ELISA, coated 1st mAb; competitor PR004290
Protocol: as §2

[9] = target: T4, hUCN1 (NT Biotin) (human, UniProt P55089 83-122, biotin at the N-terminus); assay: ELISA, biotin peptide on streptavidin plate
T4 construct: also called human UCN1 (NT biotin)
T4 peptide (looked up): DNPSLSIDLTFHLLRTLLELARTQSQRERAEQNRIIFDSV
Method in brief: (§3)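 First, streptavidin (2 μg/ml in PBS) is coated onto wells overnight at 4° C. Then, following peptide capture and binding, TMB is added for 15 minutes at room temperature. Finally, the reaction is stopped and OD450 nm is measured.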

[10] = target: T5, N-Terminal CRH (human and mouse, C-terminal K-Biotin); assay: ELISA, biotin peptide on streptavidin plate
T5 construct: also called N-Ter-CRH (CT-Bion)
T5 peptide: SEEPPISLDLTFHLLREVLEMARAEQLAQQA
Method in brief: as §3

[11] = target: T6, CRH (CT Biotin) (human and mouse, C-terminal K-Biotin); assay: ELISA, biotin peptide on streptavidin plate
T6 construct: also called Peptide 4 (CRH-Biotin)
T6 peptide: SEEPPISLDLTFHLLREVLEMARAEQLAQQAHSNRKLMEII
Method in brief: as §3

[12] = target: T7, CRH (NT Biotin) (human and mouse, not fully specified; biotin at the N-terminus); assay: ELISA, biotin peptide on streptavidin plate
T7 peptide: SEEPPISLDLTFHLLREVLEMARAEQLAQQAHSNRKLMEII
Method in brief: as §3

[13] = target: T8, hUCN1 (CT Biotin) (human, UniProt P55089 83-122, biotin at the C-terminus); assay: ELISA, biotin peptide on streptavidin plate
T8 construct: also called human UCN1 (CT biotin)
T8 peptide (looked up): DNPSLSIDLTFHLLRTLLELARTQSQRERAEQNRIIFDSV
Method in brief: as §3

[14] = target: T2, biotinylated CRH; assay: competitive ELISA, coated 1st mAb; competitor PR006152
Protocol: as §2

[15] = target: T2, biotinylated CRH; assay: competitive ELISA, coated 1st mAb; competitor PR301777
Protocol: as §2

[16] = target: T2, biotinylated CRH; assay: competitive ELISA, coated 1st mAb; competitor PR005660
Protocol: as §2

[17] = target: T2, biotinylated CRH; assay: competitive ELISA, coated 1st mAb; competitor hIgG1
Protocol: as §2

[18] = target: T9, human UCN3 peptide (human, UniProt Q969E3 120-157, not fully specified; biotin at N- or C-terminus in the ELISA); assay: ELISA on streptavidin-captured hUCN3 (NT biotin) and hUCN3 (CT biotin), mAb at 100 nM and 10 nM; axis labelled RLU, scale 0-4
T9 construct: also called hUCN3; hUCN3 (NT Biotin)
T9 peptide (looked up): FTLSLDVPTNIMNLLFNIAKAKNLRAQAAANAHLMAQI
Protocol: as §1

[19] = target: T2, biotinylated CRH; assay: Octet BLI, biotinylated CRH on SA sensor
[20] = target: T1, human UCN2 peptide; assay: ELISA, biotinylated hUCN2 on streptavidin plates
Protocol: as §1

[21] = target: T9, human UCN3 peptide; assay: ELISA, biotinylated hUCN3 on streptavidin plates
Protocol: as §1

[22] = target: T10, human UCN1 peptide (human, UniProt P55089 83-122, not fully specified; biotin at N- or C-terminus in the ELISA); assay: cell-based or functional assay
T10 peptide (looked up): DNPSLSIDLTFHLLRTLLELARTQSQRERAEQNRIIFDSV

[23] = target: T2, biotinylated CRH; assay: Octet in-tandem, row = 1st mAb; competitor (2nd mAb) PR302341-34
Protocol: (§4) SA sensors (Fortebio, Cat #18-5019) were hydrated in running buffer for 10 mins.

[24] = target: T2, biotinylated CRH; assay: Octet in-tandem, row = 1st mAb; competitor (2nd mAb) PR301777
Protocol: as §4

[25] = target: T2, biotinylated CRH; assay: Octet in-tandem, row = 1st mAb; competitor (2nd mAb) PR006669
Protocol: as §4

[26] = target: T9, human UCN3 peptide; assay: ELISA on streptavidin-captured hUCN3 (NT biotin) and hUCN3 (CT biotin), mAb at 100 nM and 10 nM, OD450
Protocol: as §1

[27] = target: T1, human UCN2 peptide; assay: ELISA on streptavidin-captured hUCN2 (NT biotin) and hUCN2 (CT biotin), mAb at 100 nM and 10 nM, OD450
Protocol: as §1

[28] = target: T2, biotinylated CRH; assay: Octet in-tandem, row = 1st mAb; competitor (2nd mAb) PR303394
Protocol: as §4

[29] = target: T2, biotinylated CRH; assay: Octet in-tandem, row = 1st mAb; competitor (2nd mAb) PR302334
Protocol: as §4

[30] = target: T2, biotinylated CRH; assay: Octet in-tandem, row = 1st mAb; competitor (2nd mAb) PR005660
Protocol: as §4

B1: PR302064 (antibody, human IgG1, kappa, V domains shown)
VH: EMQLVESGGGLVKPGGSLRLSCAASGFTFSNYWMNWVRQAPGKGLEWVAEIRLKSNNYATHYAESVKGRFTISRDDSKSTVYLQMNSLKTEDTAVYYCTVGTLVYWGQGTLVTVSS
VL: DIVLTQSPDSLAVSLGERATINCRASQSVSTSTYNYMHWFQQKPGQPPKLLIKFASNLESGVPDRFSGSGSGTDFTLTISSLQAEDTAVYYCQHSWEIPYTFGQGTKLEIKR
notes: Humanized variant of PR301777
binding result [1]: no binding (tested: 100 nM)
% Inhibition [2]: 95%
% Inhibition [3]: 95%
% Inhibition [4]: 95%
% Inhibition [5]: 94%
% Inhibition [6]: 95%
CHO-CRE-hCRHR1 0.5 nM CRH IC50 [7]: 531 pM and 664 pM
% Inhibition [8]: 93%
EC50 [9]: 118 pM and 142 pM
EC50 [10]: 22 pM
EC50 [11]: 26 pM and 23 pM
EC50 [12]: 30 pM
EC50 [13]: 208 pM and 256 pM
% Inhibition [14]: 94%
% Inhibition [15]: 94%
% Inhibition [16]: 94%
% Inhibition [17]: 1%
binding result [18]: no binding (tested: 100 nM)
Kd [19]: < 1 pM

B2: PR302341-55 (antibody, human IgG1, kappa, V domains shown)
VH: QVQLVQSGAEVKKPGASVKVSCKASGYTFTDYFMKWVRQAPGQRLEWMGVINPNNADIFYNQKFKGRVTITRDTSASTAYMELSSLRSEDTAVYYCARGTDRALFAYWGQGTLVTVSS
VL: DVVMTQSPLSLPVTLGQPASISCRSGQSIVHSDGNTYLEWYQQRPGQSPRLLIYKVSNRFSGVPDRFSGSGSGTDFTLKISRVEAEDLGVYYCFQGSHIPWTFGGGTKVEIKR
notes: Humanized, PTM-removed variant of PR302341
binding result [20]: no binding (tested: 100 nM)
binding result [21]: no binding (tested: 100 nM)
potency on hUCN1-induced against CRH-induced hCRHR1 reporter activity [22]: 267 fold lower

B3: PR302309-8 (antibody, human IgG1, kappa, V domains shown)
VH: QIQLVQSGSELKKPGASVKVSCKASGYTFTNYGMNWVRQAPGQGLEWMGWINTYTGEPIYTDDFKGRFVFSLDTSVSTAYLQISSLKAEDTAVYYCSRSTMITTGGVFAYWGQGTLVTVSS
VL: DVVMTQSPLSLPVTLGQPASISCRSSQTIVHSDGNTYLEWYQQRPGQSPRLLIYKVSNRFSGVPDRFSGSGSGTDFTLKISRVEAEDLGVYYCFQGSHVPWTFGGGTKVEIKR
notes: Humanized variant of PR302309
% Inhibition [23]: 74%
% Inhibition [24]: 80%
% Inhibition [25]: 76%
binding result [26]: no binding (tested: 100 nM)
binding result [27]: no binding (tested: 100 nM)
CHO-CRE-hCRHR1 0.5 nM CRH IC50 [7]: 1700 pM
% Inhibition [28]: 77%
EC50 [9]: 126 pM
EC50 [10]: 25 pM
EC50 [11]: 29 pM
EC50 [12]: 25 pM
EC50 [13]: 1880 pM
% Inhibition [29]: 65%
% Inhibition [30]: 76%
Kd [19]: 513 pM
koff [19]: 0.000136 s⁻¹
kon [19]: 266000 M⁻¹ s⁻¹
